Results published in PMC2328253.

Biological target: T1, His-RosE (Salmonella enterica serotype Typhimurium) (UniProt Q8ZK37)
T1 sequence: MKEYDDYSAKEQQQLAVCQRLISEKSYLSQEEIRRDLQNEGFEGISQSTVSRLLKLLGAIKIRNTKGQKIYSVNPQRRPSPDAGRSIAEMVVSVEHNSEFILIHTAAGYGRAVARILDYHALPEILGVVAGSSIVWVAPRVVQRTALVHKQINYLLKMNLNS
Test: EMSA

With “TAAAAAGTATTTCTTTGATGATTATTCTTAAATTACGATCATAATCATCGATCGTATCGATCTATTTTTATTGTTTTAATTTGAATAAGAATTTTCTTACAACTGATTAGGCATTAGCTGAAATCAATATTTTTCGATGGAAAGTTCAGG (double strand) [stdA upstream region 1]” the binding was “no binding”.
